The record followed here is article PMC6104945, “Structures of NHBA elucidate a broadly conserved epitope identified by a vaccine induced antibody” (PLoS ONE, 2018).

The experiment concerns the target T1, FL NHBA variant p3 (strain MC58) (Neisseria meningitidis MC58, UniProt Q7DD37, strain).
T1 construct: also called NHBAp3 (MC58); source: recombinant, purified protein antigen
As to the kind of experiment: SPR; single-cycle kinetics, Biacore T200, 25°C; Fab 5H2 (~800-1100 RU) captured by anti-human Fab antibodies on CM5; NHBA antigen injected at 3.125-50 nM, 30 uL/min; HBS-EP pH 7.4; 1:1 Langmuir model with mass transfer term; triplicate. The following applies: both partners purified. Background: SPR reads the build-up and loss of mass on a sensor chip optically.

B1: Fab 5H2 (Fab derived from the vaccine-elicited human monoclonal antibody 5H2) (Fab, V domains shown)
VH: QVQLQESGPGLVKPSETLSLTCTVSGGSVSSGSSYWTWIRQTPGKGLEWIGYTSYSGSTKYNPSLKSRVTLSVDMSKNQFSLKLKSVTAADTAVYFCARDRFDVASGSSFDFWGQGTLVTVSS
VL: EIVMTQTPSSLSASVGDRVTITCRASQSISNYLNWYQQKPGTAPKLLTYAASSLGSGVPSRFSGSGSGTDLTLTISSLRPEDFATYYCQQSYGSPTFGQGTKLEIR
notes: they are in the structures deposited here: PDB 5NYX chains H, M, O and PDB 5O1R chains H, I (residues Q1-C226 modelled); they are in the structures deposited here: PDB 5NYX chains L, N, P and PDB 5O1R chains L, M (residues E1-E212 modelled); Recombinant Fab; variable region genes synthesised; also called huFab 5H2; source: Expi293 cells, transient transfection, purified from supernatant …
As usually defined, the Kd is the concentration at which binding is half-saturated. Lower therefore signals a tighter complex. B1 had a Kd of 400 pM.
